Measured values from publication PMC3558696.

Target: KERP1 (lysine and glutamic acid rich protein 1), recombinant full-length protein (Entamoeba histolytica (strain HM1:IMSS))
Experiment: AUC

Substance: KERP1 (lysine and glutamic acid rich protein 1), recombinant full-length protein (natural protein)
- stoichiometry N: 3
